From patent US20210198375A1 (NANJING UMAB BIOPHARMA, published 2021) come the findings set out here.

For experiment [1], the target named is T1, Interferon receptors on Daudi cells (UniProt P17181).
T1 sequence (looked up) 1: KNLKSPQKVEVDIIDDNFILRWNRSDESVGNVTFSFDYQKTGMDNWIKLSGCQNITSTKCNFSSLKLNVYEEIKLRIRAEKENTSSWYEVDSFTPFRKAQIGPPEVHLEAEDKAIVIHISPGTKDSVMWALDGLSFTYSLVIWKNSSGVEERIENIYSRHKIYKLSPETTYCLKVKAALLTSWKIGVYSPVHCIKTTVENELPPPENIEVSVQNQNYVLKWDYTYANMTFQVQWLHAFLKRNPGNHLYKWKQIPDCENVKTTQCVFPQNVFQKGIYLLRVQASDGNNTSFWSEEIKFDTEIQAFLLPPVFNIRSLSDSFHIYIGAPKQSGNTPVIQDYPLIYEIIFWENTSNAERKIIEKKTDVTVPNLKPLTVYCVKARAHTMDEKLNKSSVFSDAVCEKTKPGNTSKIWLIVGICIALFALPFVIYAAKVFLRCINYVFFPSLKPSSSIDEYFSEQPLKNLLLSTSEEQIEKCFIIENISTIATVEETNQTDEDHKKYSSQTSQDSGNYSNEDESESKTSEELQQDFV
T1 sequence (looked up) 2: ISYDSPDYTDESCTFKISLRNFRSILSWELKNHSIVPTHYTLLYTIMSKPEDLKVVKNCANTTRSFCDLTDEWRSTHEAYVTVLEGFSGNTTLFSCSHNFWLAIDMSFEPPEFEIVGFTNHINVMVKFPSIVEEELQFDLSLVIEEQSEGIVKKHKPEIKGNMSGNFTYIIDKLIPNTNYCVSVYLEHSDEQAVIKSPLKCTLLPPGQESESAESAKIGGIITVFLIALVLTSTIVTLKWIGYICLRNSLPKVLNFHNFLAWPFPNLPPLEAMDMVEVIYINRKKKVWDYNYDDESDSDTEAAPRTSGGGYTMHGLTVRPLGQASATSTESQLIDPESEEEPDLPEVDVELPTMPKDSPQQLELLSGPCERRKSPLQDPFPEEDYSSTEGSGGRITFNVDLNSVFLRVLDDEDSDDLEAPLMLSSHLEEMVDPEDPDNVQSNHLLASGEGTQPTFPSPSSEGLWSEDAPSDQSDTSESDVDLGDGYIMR
Put plainly: cell-based or functional assay.

For experiment [2], the target named is T2, human OX40 protein (human, UniProt P43489 29-216, limits assumed).
T2 construct: also called TNFRSF4; CD134
T2 sequence (looked up): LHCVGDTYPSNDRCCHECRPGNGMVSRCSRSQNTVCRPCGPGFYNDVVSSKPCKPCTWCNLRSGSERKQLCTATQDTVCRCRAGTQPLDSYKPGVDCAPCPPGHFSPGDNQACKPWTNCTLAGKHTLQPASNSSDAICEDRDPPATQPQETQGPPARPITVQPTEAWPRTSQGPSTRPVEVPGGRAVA
Put plainly: ELISA, plate coated with human OX40 protein, goat-anti-human IgG HRP. A general note: ELISA stands for enzyme-linked immunosorbent assay.
Procedure: The next day, the plate was first washed 3 times with 300 μL PBST (Tween 20: 0.5‰), then blocked with 5% BSA/PBS at 100 μL/well for 2 h, and shaken at room temperature, followed by washing 3 times with 300 μL PBST. Gradient dilutions of the fusion protein samples were prepared in PBS, and then added to the 96-well plate at 100 μL/well; the plate was shaken for 1 h at room temperature, followed by washing 3 times with 300 μL PBST. A secondary antibody goat-anti-human IgG HRP solution was prepared and added to the 96-well plate at 100 μL/well, and the plate was shaken for 1 h at room temperature, followed by washing 4 times with 300 μL PBST. TMB was added at 100 μL/well to develop color for 20 min. 0.6N H₂SO₄ was added at 100 μL/well to stop the color development, and the OD values were determined at 450 nm.

Experiment [3] deals with T3, OX40 on reporter cells (Jurkat-OX40-NFκB-luciferase; HEK293-OX40-NFκB-Luc) (UniProt P43489 29-277).
T3 sequence (looked up): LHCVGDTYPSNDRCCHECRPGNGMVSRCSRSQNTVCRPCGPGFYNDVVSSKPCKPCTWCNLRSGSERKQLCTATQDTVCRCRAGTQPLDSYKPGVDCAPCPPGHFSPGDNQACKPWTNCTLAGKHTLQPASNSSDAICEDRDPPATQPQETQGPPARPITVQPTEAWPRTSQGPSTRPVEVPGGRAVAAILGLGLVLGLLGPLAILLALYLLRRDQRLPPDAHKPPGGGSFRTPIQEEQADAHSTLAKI
Put plainly: cell-based or functional assay.

Experiment [4] addresses T3, OX40 on reporter cells …. Put plainly: cell-based or functional assay. This is another data set of the same source.
Experiment [5] deals with T3, OX40 on reporter cells …. Put plainly: cell-based or functional assay. The source holds these as a separate data set.
Experiment [6] has as its target T2, human OX40 protein. Description: ELISA, plate coated with human OX40 protein, mouse-anti-human IgG HRP.
Procedure: The next day, the plate was first washed 3 times with 300 μL PBST (Tween 20: 0.5‰), then blocked with 5% BSA/PBS at 100 μL/well for 2 h, and shaken at room temperature, followed by washing 3 times with 300 μL PB ST. Gradient dilutions of the fusion protein samples were prepared in PBS, and then added to the 96-well plate at 100 μL/well; the plate was shaken for 1 h at room temperature, followed by washing 3 times with 300 μL PBST. A mouse-anti-human IgG HRP (GenScript Biotech Corp., Art. No. A01854) solution was prepared and added into the 96-well plate at 100 μL/well, and the plate was shaken for 1 h at room temperature, followed by washing 4 times with 300 μL PBST. TMB was added at 100 μL/well to develop color for 20 min. 0.6N H₂SO₄ was added at 100 μL/well to stop the color development, and the OD (optical density) values were determined at 450 nm.
Experiment [7] concerns the target T4, human OX40 expressed on CHO cells (human, UniProt P43489 29-277).
T4 construct: whole, on cells; also called hsOX40; CHO-hOX40
T4 sequence (looked up): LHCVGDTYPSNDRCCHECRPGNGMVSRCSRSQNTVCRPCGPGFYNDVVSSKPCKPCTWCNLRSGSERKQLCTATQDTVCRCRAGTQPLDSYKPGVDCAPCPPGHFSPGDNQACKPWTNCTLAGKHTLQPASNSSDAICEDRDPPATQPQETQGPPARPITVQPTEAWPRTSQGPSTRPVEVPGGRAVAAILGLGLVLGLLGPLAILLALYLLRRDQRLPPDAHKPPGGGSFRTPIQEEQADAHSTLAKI
Put plainly: FACS on CHO cells transfected with human OX40.

For orientation: EC50 means the concentration at which the effect is half-maximal.

Like-named read-outs stand apart in the source and are kept apart here.

“pegylated interferon α2 (Pegberon, Xiamen Amoytop Biotech, Batch No. 201811JS19) (ligand)”: the proliferation inhibitory activity on Daudi cells, IC50 in experiment [1] stood at 10600 nM.

B1: MT01-C1 (antibody, human IgG1, V domains shown)
VH: EVQLVQSGAEVKKPGESLKISCKASGYTFTSYVMHWLRQMPGKGLEWMGYINPYNDGTKYNEKFKGQVTISSDKSISTAYLQWSSLKASDTAMYYCANYYGSKFAMDYWGQGTMVTVSS
VL: DIQMTQSPSSVSASVGDRVTITCRASQDISNYLSWYQQKPGGAVKLLIYYTSRLHSGVPSRFSGSGSGTDYTLTISSLQPEDFATYFCQQGITLPWTFGQGTKVEIK
notes: also called OX40 antibody MT01-C1; OX40 mAb MT01-C1
Molecule B1 displayed an EC50 with human OX40 protein [2] of 298 ng/mL. Further, the “activate NFκB-luciferase reporter, EC50” value in experiment [3] was 0.0452 ng/mL. The entries for the “Activation activity of OX40 signaling pathway EC50” value in experiment [4] and in experiment [5] were 0.178 nM and 0.325 nM, respectively.

B2: MT01-C1 as described in Example 11 (human IgG4 (S228P), κ) (antibody, V domains shown)
VH: EVQLVQSGAEVKKPGESLKISCKASGYTFTSYVMHWLRQMPGKGLEWMGYINPYNDGTKYNEKFKGQVTISSDKSISTAYLQWSSLKASDTAMYYCANYYGSKFAMDYWGQGTMVTVSS
VL: DIQMTQSPSSVSASVGDRVTITCRASQDISNYLSWYQQKPGGAVKLLIYYTSRLHSGVPSRFSGSGSGTDYTLTISSLQPEDFATYFCQQGITLPWTFGQGTKVEIK
notes: also called OX40 antibody MT01-C1; MT01-C1 mAb
In the case of B2, the EC50 with human OX40 protein [6] was 1.21 nM.

B3: MT01-L1 (antibody, V domains shown)
VH: EVQLQQSGPELVKPGASVKMSCKASGYTFTSYVMHWLKQKPGQGLEWIGYINPYNDGTKYNEKFKGKAKLTSDKSSSTAYMELSSLTSEDSAVYYCANYYGSKFAMDYWGQGTSVTVSS
VL: DIQMTQTTSSLSASLGDRVTISCRASQDISNYLSWYQRKPDGAVKLLIYYTSRLHSGVPSRFSGSGSGADYSLTISNLEQEDIATYFCQQGITLPWTFGGGTKLEIKR
As to B3, the EC50 in experiment [7] came to 660 ng/mL.
